The text below walks through data of PMC11446282.

This experiment addresses fluorescent peptide probe FITC-PEG2-…-Nle-IKKLEW. The experiment in a line: fluorescence polarisation. In general terms: Polarisation of emitted light reports the rotation of a fluorescent probe.

B55α (His-Strep-TEV fusion protein), sequence (P63151 whole entry, the tested form may be a part): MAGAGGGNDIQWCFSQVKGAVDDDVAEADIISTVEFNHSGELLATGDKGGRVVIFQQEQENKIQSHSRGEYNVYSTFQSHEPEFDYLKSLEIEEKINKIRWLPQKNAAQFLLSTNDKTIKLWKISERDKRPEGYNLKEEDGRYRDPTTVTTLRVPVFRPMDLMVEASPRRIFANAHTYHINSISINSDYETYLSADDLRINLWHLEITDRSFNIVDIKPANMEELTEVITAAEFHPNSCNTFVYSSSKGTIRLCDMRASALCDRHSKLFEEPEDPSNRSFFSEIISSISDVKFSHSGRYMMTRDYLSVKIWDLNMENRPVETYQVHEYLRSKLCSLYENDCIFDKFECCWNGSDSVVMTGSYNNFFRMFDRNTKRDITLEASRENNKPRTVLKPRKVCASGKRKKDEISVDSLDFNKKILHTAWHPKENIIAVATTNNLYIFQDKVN

As a reminder, the Kd is the free concentration of one partner at which half of the binding sites on the other are occupied at equilibrium, for simple one-to-one binding. “B55α (His-Strep-TEV fusion protein) (from UniProt P63151 1-447) (natural protein)” came in with a Kd of 6 nM.
